Assay results published in US7910550B2, “Human kunitz-type inhibitor with enhanced antifibrinolytic activity” (STC.UNM, priority 2004, dated 2011).

System: HT-1080 cells
Assay: Gene expression by Oligo GEARRAY Human Apoptosis Microarray
Assay type: cell-based
Procedure: To study the gene expression profiles of proteins involved in apoptosis, approximately 2×10^7 cells were grown to confluence and treated with either recombinant R24K KD1 or vehicle for 24 hours and 48 hours. After the treatment, the cells were harvested and total RNA was purified using the RNEASY RNA extraction kit according to the manufacturer's instruction. The purified RNA samples were further digested using an on-column DNase digestion with RNase-free DNase-I to ensure complete removal of any contaminating genomic or mitochondrial DNA. The pathway-specific microarray was carried out using 3 μg of total RNA to generate biotin-labeled cRNA using TRUELABELING-AMP from SABiosciences Corp. (Frederick, Md.). TRUELABELING-AMP 2.0 from (SABiosciences Corp., Frederick, Md.) was used to rapidly amplify and label antisense RNA for hybridization. Three micrograms of labeled cRNA was used for hybridization with an Oligo GEARRAY Human Apoptosis Microarray consisting of 112 genes. Following incubation with CDP-STAR, the chemiluminescent array image was captured by a cooled CCD camera (Alpha Innotech Corp., San Leandro, Calif.). All images were saved as electronic files in a grayscale, 8 or 16 bit TIFF file format and analyzed using a GEARRAY Expression Analysis Suite. Data were normalized using minimum value background subtraction and interquartile normalization. Minimum value is the lowest density spot on the array and the average across the spot was used as the background correction value and is subtracted from the intensity value for each spot on the array. Interquartile uses only genes between the 25% and 75% quartile and the average intensity value of these spots is used for normalization of all the genes (intensity value of each gene is divided by this mean intensity value). The pUC19 plasmid was used as the negative control in the array.

B1: R24K KD1: KD1 with lysine in place of arginine at position 24 (SEQ ID NO:3) (protein)
chain: DAAQEPTGNNAEICLLPLDYGPCKALLLRYYYDRYTQSCRQFLYGGCEGNANNFYTWEACDDACWRIEKVPKV
modifications: mutated active domain
In the case of B1, the “Fold change BAG3, Group 2 vs. Group 1” value (Group 2 vs. Group 1) is reported as 0.60 fold, the “Fold change BAK1, Group 2 vs. Group 1” value (Group 2 vs. Group 1) is reported as 1.78 fold and the “Fold change BAX, Group 2 vs. Group 1” value (Group 2 vs. Group 1) is reported as 3.09 fold. For the same molecule, the “Fold change BCL2, Group 2 vs. Group 1” value (Group 2 vs. Group 1) was 0.65 fold, the “Fold change BCL2A1, Group 2 vs. Group 1” value (Group 2 vs. Group 1) was 2.02 fold and the “Fold change BCLAF1, Group 2 vs. Group 1” value (Group 2 vs. Group 1) was 0.74 fold. For the same molecule, the “Fold change BFAR, Group 2 vs. Group 1” value (Group 2 vs. Group 1) was 0.34 fold, the “Fold change BNIP3, Group 2 vs. Group 1” value (Group 2 vs. Group 1) was 1.71 fold and the “Fold change CARD6, Group 2 vs. Group 1” value (Group 2 vs. Group 1) was 2.31 fold. The “Fold change CARD11, Group 2 vs. Group 1” value (Group 2 vs. Group 1) was 1.54 fold, the “Fold change CASP4, Group 2 vs. Group 1” value (Group 2 vs. Group 1) was 1.18 fold and the “Fold change CASP9, Group 2 vs. Group 1” value (Group 2 vs. Group 1) was 1.50 fold. For the same molecule, the “Fold change CD40, Group 2 vs. Group 1” value (Group 2 vs. Group 1) was 4.74 fold, the “Fold change CIDEB, Group 2 vs. Group 1” value (Group 2 vs. Group 1) was 2.25 fold and the “Fold change GADD45A, Group 2 vs. Group 1” value (Group 2 vs. Group 1) was 1.88 fold. For the same molecule, the “Fold change LTA, Group 2 vs. Group 1” value (Group 2 vs. Group 1) was 75.31 fold, the “Fold change LTBR, Group 2 vs. Group 1” value (Group 2 vs. Group 1) was 1.38 fold and the “Fold change MCL1, Group 2 vs. Group 1” value (Group 2 vs. Group 1) was 1.46 fold. The “Fold change TNFRSF1B, Group 2 vs. Group 1” value (Group 2 vs. Group 1) was 1.59 fold, the “Fold change TNFRSF10B, Group 2 vs. Group 1” value (Group 2 vs. Group 1) was 1.68 fold and the “Fold change TNFRSF25, Group 2 vs. Group 1” value (Group 2 vs. Group 1) was 1.27 fold. For the same molecule, the “Fold change TRADD, Group 2 vs. Group 1” value (Group 2 vs. Group 1) was 1.92 fold, the “Fold change TRAF4, Group 2 vs. Group 1” value (Group 2 vs. Group 1) was 3.79 fold and the “Fold change BAG3, Group 3 vs. Group 1” value (Group 3 vs. Group 1) was 0.44 fold. For the same molecule, the “Fold change BAK1, Group 3 vs. Group 1” value (Group 3 vs. Group 1) was 1.74 fold, the “Fold change BAX, Group 3 vs. Group 1” value (Group 3 vs. Group 1) was 3.97 fold and the “Fold change BCL2, Group 3 vs. Group 1” value (Group 3 vs. Group 1) was 0.12 fold. For the same molecule, the “Fold change BCL2A1, Group 3 vs. Group 1” value (Group 3 vs. Group 1) was 2.09 fold, the “Fold change BCL2L13, Group 3 vs. Group 1” value (Group 3 vs. Group 1) was 1.61 fold and the “Fold change BCLAF1, Group 3 vs. Group 1” value (Group 3 vs. Group 1) was 0.41 fold. For the same molecule, the “Fold change BFAR, Group 3 vs. Group 1” value (Group 3 vs. Group 1) was 0.25 fold, the “Fold change BNIP3, Group 3 vs. Group 1” value (Group 3 vs. Group 1) was 1.69 fold and the “Fold change CARD6, Group 3 vs. Group 1” value (Group 3 vs. Group 1) was 3.62 fold. For the same molecule, the “Fold change CARD11, Group 3 vs. Group 1” value (Group 3 vs. Group 1) was 4.36 fold, the “Fold change CASP4, Group 3 vs. Group 1” value (Group 3 vs. Group 1) was 2.28 fold and the “Fold change CASP9, Group 3 vs. Group 1” value (Group 3 vs. Group 1) was 3.22 fold. The “Fold change CD40, Group 3 vs. Group 1” value (Group 3 vs. Group 1) was 63.39 fold, the “Fold change CIDEB, Group 3 vs. Group 1” value (Group 3 vs. Group 1) was 1.77 fold and the “Fold change GADD45A, Group 3 vs. Group 1” value (Group 3 vs. Group 1) was 5.56 fold. The “Fold change LTA, Group 3 vs. Group 1” value (Group 3 vs. Group 1) was 15.94 fold, the “Fold change LTBR, Group 3 vs. Group 1” value (Group 3 vs. Group 1) was 1.88 fold and the “Fold change MCL1, Group 3 vs. Group 1” value (Group 3 vs. Group 1) was 2.20 fold. The “Fold change TNFRSF1B, Group 3 vs. Group 1” value (Group 3 vs. Group 1) was 2.10 fold, the “Fold change TNFRSF10B, Group 3 vs. Group 1” value (Group 3 vs. Group 1) was 1.71 fold and the “Fold change TNFRSF25, Group 3 vs. Group 1” value (Group 3 vs. Group 1) was 2.08 fold. The “Fold change TRADD, Group 3 vs. Group 1” value (Group 3 vs. Group 1) was 2.07 fold and the “Fold change TRAF4, Group 3 vs. Group 1” value (Group 3 vs. Group 1) was 4.05 fold.
